Assay results as given in patent publication US20100167342.

System: GlyExendin-4 (Glycine-extended Exendin-4, Exendin-4 precursor with C-terminal glycine)

| Substance | N-terminal clipping of GlyExendin-4 (HPLC and LCMS of peptide expressed in STE13-disrupted clone D2) | (N-2) impurity of GlyExendin-4 (HPLC of peptide expressed in DAP2-disrupted Pichia clone) |
| --- | --- | --- |
| Pichia pastoris homolog of Saccharomyces cerevisiae STE13 dipeptidyl peptidase | the expressed GlyExendin-4 when checked by HPLC and LCMS was not N-terminally clipped |  |
| Pichia pastoris homolog of Saccharomyces cerevisiae dipeptidyl peptidase DAP2 |  | This continued to show (N-2) impurity |
